From US6828106 (dated 2004)
Where no end group is shown, it is not given here. fluorescein or rhodamine = not defined here

Assays:
[1] = biological target: the molecule itself; experiment: FRET (fluorescein/rhodamine) and fluorescence polarization (fluorescein/biotin), 6 µM total peptide, 6:1
[2] = biological target: T1, peptide 1 (Example 8), labeled with fluorescein (labeled with fluorescein (site not stated)); experiment: FRET (fluorescein/rhodamine) and fluorescence polarization (fluorescein/biotin with streptavidin), 6 µM total peptide, 1:1
T1 construct: Heterodimer partner in the chymotrypsin assays
T1 peptide: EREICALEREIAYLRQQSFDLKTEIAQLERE

[3] = biological target: the molecule itself; experiment: FRET between the fluorescein- and rhodamine-labelled forms of the same peptide (homodimer)
[4] = biological target: T2, peptide C labelled with rhodamine (CR) (not fully specified; N-terminal acetyl; C-terminal amide; labelled with rhodamine (or vice versa with fluorescein)); experiment: FRET between fluorescein- and rhodamine-labelled peptides
T2 construct: Artificial designer peptide, one partner of a heterodimeric coiled coil
T2 peptide: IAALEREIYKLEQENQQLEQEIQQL

[5] = biological target: T3, reporter peptide 1 (Example 10), labeled with fluorescein (labeled with fluorescein (site not stated)); experiment: FRET (fluorescein/rhodamine), 5 µM total peptide, 1:1
T3 construct: Heterodimer partner in the thrombin assay
T3 peptide: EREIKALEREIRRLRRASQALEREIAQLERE

B1: reporter peptide (Example 9, TEV) (peptide)
peptide: KGRMRCLEDRVENLYSQSYHLENEVARLRRLVGELAAK
modifications: not fully specified; also: homodimer
notes: Forms a homodimer; All labelled forms are written as one molecule (6:1 ratio R:F or biotin:F)
[1]
  binding result: binds

B2: peptide 2 (Example 8), labeled with rhodamine (FRET) or biotin (FP) (peptide)
peptide: LRQRIQCLRQKIAYLRQQSFDLKTQIAQLRQR
modifications: also: rhodamine or biotin label, site not given here
notes: Heterodimer partner in the chymotrypsin assays; Both labelled forms are written as one molecule
[2]
  binding result: binds

B3: Peptide 2 (Example 3, TEV protease cleavage site) (peptide)
peptide: RMKQLEDKVENLYSQSYHLENEVAC(fluorescein or rhodamine)LKKLVGER
modifications: reading uncertain
notes: GCN4-derived homodimeric reporter; The fluorescein- and rhodamine-labelled forms are written as one molecule
[3]
  binding result: binds

B4: Peptide 4 (Example 5, caspase 2, 3, 7 site) (peptide)
peptide: RMKQLEDKVEELLDENDHLENEVACLKKLVGER
modifications: also: fluorescein or rhodamine label, site not given here
notes: GCN4-derived homodimeric reporter; Both labelled forms are written as one molecule
[3]
  binding result: binds

B5: peptide B labelled with fluorescein (BF) (peptide)
peptide: IAALRERICYLRERNQQLRQRIQQL
modifications: not fully specified; also: fluorescein label, site not given here
notes: Artificial designer peptide, one partner of a heterodimeric coiled coil
[4]
  binding result: binds

B6: reporter peptide 2 (Example 10), labeled with rhodamine (peptide)
peptide: LRQRIQCLRYRIRRLRRASQALRQRIAQLKQR
modifications: also: rhodamine label, site not given here
notes: Heterodimer partner in the thrombin assay
[5]
  binding result: binds
